What was measured:
[1] = molecular target: T1, MtrA~P (UniProt P9WGM7); test: EMSA; conditions: 50 mM Tris-HCl pH 7.5, 50 mM NaCl, 10 mM MgCl2, 10 mM CaCl2, poly dI/dC and sheared salmon sperm DNA (1 ug), 37 C 15 min; 200 fmol DNA, 1-10 uM protein; 5% …
T1 sequence: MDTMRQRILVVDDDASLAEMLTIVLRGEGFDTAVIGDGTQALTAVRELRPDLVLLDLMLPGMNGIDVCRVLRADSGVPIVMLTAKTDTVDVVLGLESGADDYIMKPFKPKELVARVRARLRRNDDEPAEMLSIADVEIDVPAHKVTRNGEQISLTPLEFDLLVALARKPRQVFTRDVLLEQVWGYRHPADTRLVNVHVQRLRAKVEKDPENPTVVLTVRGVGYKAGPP

[2] = molecular target: T2, MtrA (unphosphorylated) (UniProt P9WGM7); test: EMSA; conditions: 50 mM Tris-HCl pH 7.5, 50 mM NaCl, 10 mM MgCl2, 10 mM CaCl2, […]
T2 sequence: T1 sequence

Sequence | binding [1] | binding [2]
CTGTGCAGAGTAGGTGATCGGCGGCCCGACCGCGAGGAGCCGCGCTGTGACTGGCGGGACGAAAGTTACAGATGAAGATATTTGCGTCCGGTGTCGGTGAGCACGCTGCGCAGGATGGTTTCGATGGTGTCGAACTCGGGCTGTCCGCTAATCAGCGGGGGAGCCACCTGGACGACGGGGTCCCCGCGGTCGTCGGTG (double strand) [PdacB1] | binds | –
TCGACTCAGATCTCCTAGGGCTCAACTCGGAGGGACAGCGCAGGTCAACGCCAACGACACCACAAGCATCATTTGCACCGTACGTCACATCTGACGCTATGGAAACGTAAGTCACAAACTGCCCCCGGTACGTGCGACTAATGTGACCCAACGGTGACCTCGCGCGTTTGCCGCAAACAACCGCCCGGTTAGCGCGGCAA (double strand) [PripA] | binds | binds
